Measurements published in article PMC10602907.

Target: FgSreA, 6xHis-tagged recombinant protein (Fusarium graminearum PH-1)
Assay: MST
Conditions: natural protein

**Q.** Which EC50 does the source give for “FgGrx4, 6xHis-tagged recombinant protein” here?
**A.** Its EC50 is 17.7 µM.

**Q.** And the Kd?
**A.** The Kd was 0.1 nM.
